Data from the supplement of paper PMC10567573.

B1: IFRG15 (parent)
chain: INRADYCPECYPDNPANRSLVLPW

Variants of: B1
Test: protein stability index of a GFP-peptide fusion (GPS, HEK-293T) (PSI 1-6); higher = more stable
Conditions: c terminus: a fixed tail appended
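Further: lentivirally expressed fusions sorted by FACS into six bins by GFP to DsRed ratio, PSI derived from sequencing read proportions per bin multiplied by bin number.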

Variant | protein stability index
INRADYCAECYPDNPANRSLVLPW [P8A] | 1.27
INRADYCMECYPDNPANRSLVLPW [P8M] | 1.71
INRADYCKECYPDNPANRSLVLPW [P8K] | 2.47
SNRADYCPECYPDNPANRSLVLPW [I1S] | 2.14
KNRADYCPECYPDNPANRSLVLPW [I1K] | 2.42
YNRADYCPECYPDNPANRSLVLPW [I1Y] | 1.49
NNRADYCPECYPDNPANRSLVLPW [I1N] | 3.18
LNRADYCPECYPDNPANRSLVLPW [I1L] | 2.29
VNRADYCPECYPDNPANRSLVLPW [I1V] | 1.92
MNRADYCPECYPDNPANRSLVLPW [I1M] | 2.38
FNRADYCPECYPDNPANRSLVLPW [I1F] | 2.34
GNRADYCPECYPDNPANRSLVLPW [I1G] | 2.05
PNRADYCPECYPDNPANRSLVLPW [I1P] | 2.21
RNRADYCPECYPDNPANRSLVLPW [I1R] | 2.05
TNRADYCPECYPDNPANRSLVLPW [I1T] | 1.74
QNRADYCPECYPDNPANRSLVLPW [I1Q] | 2.26
WNRADYCPECYPDNPANRSLVLPW [I1W] | 1.33
HNRADYCPECYPDNPANRSLVLPW [I1H] | 2.44
INRWDYCPECYPDNPANRSLVLPW [A4W] | 1.68
INREDYCPECYPDNPANRSLVLPW [A4E] | 2.48
INRPDYCPECYPDNPANRSLVLPW [A4P] | 2.47
INRGDYCPECYPDNPANRSLVLPW [A4G] | 2.55
INRYDYCPECYPDNPANRSLVLPW [A4Y] | 2.63
INRMDYCPECYPDNPANRSLVLPW [A4M] | 1.51

Variant | protein stability index
INRSDYCPECYPDNPANRSLVLPW [A4S] | 2.28
INRDDYCPECYPDNPANRSLVLPW [A4D] | 1.95
INRCDYCPECYPDNPANRSLVLPW [A4C] | 1.78
INRVDYCPECYPDNPANRSLVLPW [A4V] | 1.83
INRNDYCPECYPDNPANRSLVLPW [A4N] | 2.2
INRKDYCPECYPDNPANRSLVLPW [A4K] | 2.16
INRRDYCPECYPDNPANRSLVLPW [A4R] | 1.83
INRLDYCPECYPDNPANRSLVLPW [A4L] | 2.09
INRIDYCPECYPDNPANRSLVLPW [A4I] | 2.66
INRTDYCPECYPDNPANRSLVLPW [A4T] | 2.1
INRHDYCPECYPDNPANRSLVLPW [A4H] | 1.65
INRFDYCPECYPDNPANRSLVLPW [A4F] | 1.93
INRQDYCPECYPDNPANRSLVLPW [A4Q] | 2.28
INRADYCPPCYPDNPANRSLVLPW [E9P] | 3.15
INRADYCPICYPDNPANRSLVLPW [E9I] | 1.38
INRADYCPFCYPDNPANRSLVLPW [E9F] | 1.78
INRADYCPCCYPDNPANRSLVLPW [E9C] | 2.4
INRADYCPNCYPDNPANRSLVLPW [E9N] | 1.92
INRADYCPYCYPDNPANRSLVLPW [E9Y] | 1.31
INRADYCPTCYPDNPANRSLVLPW [E9T] | 1.86
INRADYCPACYPDNPANRSLVLPW [E9A] | 2.71
INRADYCPVCYPDNPANRSLVLPW [E9V] | 3.07
INRADYCPDCYPDNPANRSLVLPW [E9D] | 2.39
INRADYCPGCYPDNPANRSLVLPW [E9G] | 1.66

Variant | protein stability index
INRADYCPQCYPDNPANRSLVLPW [E9Q] | 1.62
INRADYCPKCYPDNPANRSLVLPW [E9K] | 1.63
INRADYCPHCYPDNPANRSLVLPW [E9H] | 1.63
INRADYCPWCYPDNPANRSLVLPW [E9W] | 1.58
INRADYCPMCYPDNPANRSLVLPW [E9M] | 1.82
INRADYCPSCYPDNPANRSLVLPW [E9S] | 1.86
INRADYCPLCYPDNPANRSLVLPW [E9L] | 2.07
INRADYCPRCYPDNPANRSLVLPW [E9R] | 2.02
INRADDCPECYPDNPANRSLVLPW [Y6D] | 2.9
INRADTCPECYPDNPANRSLVLPW [Y6T] | 3.14
INRADMCPECYPDNPANRSLVLPW [Y6M] | 2.21
INRADGCPECYPDNPANRSLVLPW [Y6G] | 2.65
INRADCCPECYPDNPANRSLVLPW [Y6C] | 2.67
INRADNCPECYPDNPANRSLVLPW [Y6N] | 2.86
INRADSCPECYPDNPANRSLVLPW [Y6S] | 3.25
INRADRCPECYPDNPANRSLVLPW [Y6R] | 2.44
INRADKCPECYPDNPANRSLVLPW [Y6K] | 2.66
INRADFCPECYPDNPANRSLVLPW [Y6F] | 2.22
INRADWCPECYPDNPANRSLVLPW [Y6W] | 2.3
INRADACPECYPDNPANRSLVLPW [Y6A] | 2.62
INRADICPECYPDNPANRSLVLPW [Y6I] | 2.24
INRADHCPECYPDNPANRSLVLPW [Y6H] | 3.04
INRADLCPECYPDNPANRSLVLPW [Y6L] | 2.05
INRADVCPECYPDNPANRSLVLPW [Y6V] | 2.46

Variant | protein stability index
INRADECPECYPDNPANRSLVLPW [Y6E] | 2.52
INRADPCPECYPDNPANRSLVLPW [Y6P] | 3.33
INRADQCPECYPDNPANRSLVLPW [Y6Q] | 3.12
INRADYCPEYYPDNPANRSLVLPW [C10Y] | 2.31
INRADYCPEKYPDNPANRSLVLPW [C10K] | 2.59
INRADYCPEPYPDNPANRSLVLPW [C10P] | 3.17
INRADYCPESYPDNPANRSLVLPW [C10S] | 2.92
INRADYCPEHYPDNPANRSLVLPW [C10H] | 2.6
INRADYCPELYPDNPANRSLVLPW [C10L] | 2.31
INRADYCPEEYPDNPANRSLVLPW [C10E] | 2.83
INRADYCPEDYPDNPANRSLVLPW [C10D] | 3.65
INRADYCPEIYPDNPANRSLVLPW [C10I] | 1.74
INRADYCPEFYPDNPANRSLVLPW [C10F] | 2.66
INRADYCPENYPDNPANRSLVLPW [C10N] | 2.62
INRADYCPETYPDNPANRSLVLPW [C10T] | 2.35
INRADYCPEWYPDNPANRSLVLPW [C10W] | 2.07
INRADYCPEQYPDNPANRSLVLPW [C10Q] | 3.09
INRADYCPEGYPDNPANRSLVLPW [C10G] | 2.81
INRADYCPEVYPDNPANRSLVLPW [C10V] | 2.32
INRADYCPEMYPDNPANRSLVLPW [C10M] | 2.83
INRADYCPEAYPDNPANRSLVLPW [C10A] | 2.41
INRADYCPERYPDNPANRSLVLPW [C10R] | 2.29
